Reference: the supplement of paper PMC5998384

How the values were obtained:
[1] = test system: HeLa Kyoto; assay: solubility change mitosis vs G1/S (difference of NP-40 vs SDS log2 ratios) (log2 ratio difference); higher = more soluble in mitosis
[2] = test system: HeLa Kyoto; assay: solubility in G1/S (NP-40 vs SDS abundance) (log2 ratio); higher = more soluble; conditions: cell cycle stage: G1/S
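For solubility change mitosis vs G1/S (difference of NP-40 vs SDS log2 ratios) in this document: synchronized HeLa Kyoto cells (double thymidine block for G1/S, nocodazole release for mitosis), protein amounts in NP-40 versus SDS lysates quantified by mass spectrometry, three biological replicates.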
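For solubility in G1/S (NP-40 vs SDS abundance) in this document: HeLa Kyoto cells arrested at G1/S by double thymidine block, proteins quantified by TMT10plex mass spectrometry in mild NP-40 versus SDS extracts, three biological replicates.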

Sequence	solubility change mitosis (log2) [1]	solubility in G1/S (log2) [2]
MAADLNLEWISLPRSWTYGITRGGRVFFINEEAKSTTWLHPVTGEAVVTGHRRQSTDLPTGWEEAYTFEGARYYINHNERKVTCKHPVTGQPSQDNCIFVVNEQTVATMTSEEKKERPISMINEASNYNVTSDYAVHPMSPVGRTSRASKKVHNFGKRSNSIKRNPNAPVVRRGWLYKQDSTGMKLWKKRWFVLSDLCLFYYRDEKEEGILGSILLPSFQIALLTSEDHINRKYAFKAAHPNMRTYYFCTDTGKEMELWMKAMLDAALVQTEPVKRVDKITSENAPTKETNNIPNHRVLIKPEIQNNQKNKEMSKIEEKKALEAEKYGFQKDGQDRPLTKINSVKLNSLPSEYESGSACPAQTVHYRPINLSSSENKIVNVSLADLRGGNRPNTGPLYTEADRVIQRTNSMQQLEQWIKIQKGRGHEEETRGVISYQTLPRNMPSHRAQIMARYPEGYRTLPRNSKTRPESICSVTPSTHDKTLGPGAEEKRRSMRDDTMWQLYEWQQRQFYNKQSTLPRHSTLSSPKTMVNISDQTMHSIPTSPSHGSIAAYQGYSPQRTYRSEVSSPIQRGDVTIDRRHRAHHPKHVYVPDRRSVPAGLTLQSVSPQSLQGKTLSQDEGRGTLYKYRPEEVDIDAKLSRLCEQDKVVHALEEKLQQLHKEKYTLEQALLSASQEIEMHADNPAAIQTVVLQRDDLQNGLLSTCRELSRATAELERAWREYDKLEYDVTVTRNQMQEQLDHLGEVQTESAGIQRAQIQKELWRIQDVMEGLSKHKQQRGTTEIGMIGSKPFSTVKYKNEGPDYRLYKSEPELTTVAEVDESNGEEKSEPVSEIETSVVKGSHFPVGVVPPRAKSPTPESSTIASYVTLRKTKKMMDLRTERPRSAVEQLCLAESTRPRMTVEEQMERIRRHQQACLREKKKGLNVIGASDQSPLQSPSNLRDNPFRTTQTRRRDDKELDTAIRENDVKPDHETPATEIVQLKETEPQNVDFSKELKKTENISYEMLFEPEPNGVNSVEMMDKERNKDKMPEDVTFSPQDETQTANHKPEEHPEENTKNSVDEQEETVISYESTPEVSRGNQTMAVKSLSPSPESSASPVPSTQPQLTEGSHFMCV [PLEKHA5]	0.0805	-0.128
MVAMAAGPSGCLVPAFGLRLLLATVLQAVSAFGAEFSSEACRELGFSSNLLCSSCDLLGQFNLLQLDPDCRGCCQEEAQFETKKLYAGAILEVCGUKLGRFPQVQAFVRSDKPKLFRGLQIKYVRGSDPVLKLLDDNGNIAEELSILKWNTDSVEEFLSEKLERI [SEP15]	-0.028	0.305
MNYVGQLAGQVFVTVKELYKGLNPATLSGCIDIIVIRQPNGNLQCSPFHVRFGKMGVLRSREKVVDIEINGESVDLHMKLGDNGEAFFVQETDNDQEVIPMHLATSPILSEGASRMECQLKRGSVDRMRGLDPSTPAQVIAPSETPSSSSVVKKRRKRRRKSQLDSLKRDDNMNTSEDEDMFPIEMSSDEAMELLESSRTLPNDIPPFQDDIPEENLSLAVIYPQSASYPNSDREWSPTPSPSGSRPSTPKSDSELVSKSTERTGQKNPEMLWLWGELPQAAKSSSPHKMKESSPLSSRKICDKSHFQAIHSESSDTFSDQSPTLVGGALLDQNKPQTEMQFVNEEDLETLGAAAPLLPMIEELKPPSASVVQTANKTDSPSRKRDKRSRHLGADGVYLDDLTDMDPEVAALYFPKNGDPSGLAKHASDNGARSANQSPQSVGSSGVDSGVESTSDGLRDLPSIAISLCGGLSDHREITKDAFLEQAVSYQQFVDNPAIIDDPNLVVKIGSKYYNWTTAAPLLLAMQAFQKPLPKATVESIMRDKMPKKGGRWWFSWRGRNTTIKEESKPEQCLAGKAHSTGEQPPQLSLATRVKHESSSSDEERAAAKPSNAGHLPLLPNVSYKKTLRLTSEQLKSLKLKNGPNDVVFSVTTQYQGTCRCEGTIYLWNWDDKVIISDIDGTITRSDTLGHILPTLGKDWTHQGIAKLYHKVSQNGYKFLYCSARAIGMADMTRGYLHWVNERGTVLPQGPLLLSPSSLFSALHREVIEKKPEKFKVQCLTDIKNLFFPNTEPFYAAFGNRPADVYSYKQVGVSLNRIFTVNPKGELVQEHAKTNISSYVRLCEVVDHVFPLLKRSHSSDFPCSDTFSNFTFWREPLPPFENQDIHSASA [LPIN1]	-0.0904	0.0583
MAAPVRLGRKRPLPACPNPLFVRWLTEWRDEATRSRRRTRFVFQKALRSLRRYPLPLRSGKEAKILQHFGDGLCRMLDERLQRHRTSGGDHAPDSPSGENSPAPQGRLAEVQDSSMPVPAQPKAGGSGSYWPARHSGARVILLVLYREHLNPNGHHFLTKEELLQRCAQKSPRVAPGSARPWPALRSLLHRNLVLRTHQPARYSLTPEGLELAQKLAESEGLSLLNVGIGPKEPPGEETAVPGAASAELASEAGVQQQPLELRPGEYRVLLCVDIGETRGGGHRPELLRELQRLHVTHTVRKLHVGDFVWVAQETNPRDPANPGELVLDHIVERKRLDDLCSSIIDGRFREQKFRLKRCGLERRVYLVEEHGSVHNLSLPESTLLQAVTNTQVIDGFFVKRTADIKESAAYLALLTRGLQRLYQGHTLRSRPWGTPGNPESGAMTSPNPLCSLLTFSDFNAGAIKNKAQSVREVFARQLMQVRGVSGEKAAALVDRYSTPASLLAAYDACATPKEQETLLSTIKCGRLQRNLGPALSRTLSQLYCSYGPLT [MUS81]	0.243	-0.347
MAAEALAAEAVASRLERQEEDIRWLWSEVERLRDEQLNAPYSCQAEGPCLTREVAQLRAENCDLRHRLCSLRLCLAEERSRQATLESAELEAAQEAGAQPPPSQSQDKDMKKKKMKESEADSEVKHQPIFIKERLKLFEILKKDHQLLLAIYGKKGDTSNIITVRVADGQTVQGEVWKTTPYQVAAEISQELAESTVIAKVNGELWDLDRPLEGDSSLELLTFDNEEAQAVYWHSSAHILGEAMELYYGGHLCYGPPIENGFYYDMFIEDRAVSSTELSALENICKAIIKEKQPFERLEVSKEILLEMFKYNKFKCRILNEKVNTATTTVYRCGPLIDLCKGPHVRHTGKIKTIKIFKNSSTYWEGNPEMETLQRIYGISFPDNKMMRDWEKFQEEAKNRDHRKIGKEQELFFFHDLSPGSCFFLPRGAFIYNTLTDFIREEYHKRDFTEVLSPNMYNSKLWEASGHWQHYSENMFTFEIEKDTFALKPMNCPGHCLMFAHRPRSWREMPIRFADFGVLHRNELSGTLSGLTRVRRFQQDDAHIFCTVEQIEEEIKGCLQFLQSVYSTFGFSFQLNLSTRPENFLGEIEMWNEAEKQLQNSLMDFGEPWKMNPGDGAFYGPKIDIKIKDAIGRYHQCATIQLDFQLPIRFNLTYVSKDGDDKKRPVIIHRAILGSVERMIAILSENYGGKWPFWLSPRQVMVIPVGPTCEKYALQVSSEFFEEGFMADVDLDHSCTLNKKIRNAQLAQYNFILVVGEKEKIDNAVNVRTRDNKIHGEILVTSAIDKLKNLRKTRTLNAEEAF [TARSL2]	0.191	-0.498
MAVWIQAQQLQGEALHQMQALYGQHFPIEVRHYLSQWIESQAWDSVDLDNPQENIKATQLLEGLVQELQKKAEHQVGEDGFLLKIKLGHYATQLQNTYDRCPMELVRCIRHILYNEQRLVREANNGSSPAGSLADAMSQKHLQINQTFEELRLVTQDTENELKKLQQTQEYFIIQYQESLRIQAQFGPLAQLSPQERLSRETALQQKQVSLEAWLQREAQTLQQYRVELAEKHQKTLQLLRKQQTIILDDELIQWKRRQQLAGNGGPPEGSLDVLQSWCEKLAEIIWQNRQQIRRAEHLCQQLPIPGPVEEMLAEVNATITDIISALVTSTFIIEKQPPQVLKTQTKFAATVRLLVGGKLNVHMNPPQVKATIISEQQAKSLLKNENTRNDYSGEILNNCCVMEYHQATGTLSAHFRNMSLKRIKRSDRRGAESVTEEKFTILFESQFSVGGNELVFQVKTLSLPVVVIVHGSQDNNATATVLWDNAFAEPGRVPFAVPDKVLWPQLCEALNMKFKAEVQSNRGLTKENLVFLAQKLFNNSSSHLEDYSGLSVSWSQFNRENLPGRNYTFWQWFDGVMEVLKKHLKPHWNDGAILGFVNKQQAHDLLINKPDGTFLLRFSDSEIGGITIAWKFDSQERMFWNLMPFTTRDFSIRSLADRLGDLNYLIYVFPDRPKDEVYSKYYTPVPCESATAKAVDGYVKPQIKQVVPEFVNASADAGGGSATYMDQAPSPAVCPQAHYNMYPQNPDSVLDTDGDFDLEDTMDVARRVEELLGRPMDSQWIPHAQS [STAT5B]	-0.309	-0.0111
